Results from patent US20230080842A1 (WUHAN YZY BIOPHARMA, published 2023).

T1: Human VEGFA (human, UniProt P15692 207-395)
T1 construct: also called VEGF antigen; not shown: His tag
T1 sequence: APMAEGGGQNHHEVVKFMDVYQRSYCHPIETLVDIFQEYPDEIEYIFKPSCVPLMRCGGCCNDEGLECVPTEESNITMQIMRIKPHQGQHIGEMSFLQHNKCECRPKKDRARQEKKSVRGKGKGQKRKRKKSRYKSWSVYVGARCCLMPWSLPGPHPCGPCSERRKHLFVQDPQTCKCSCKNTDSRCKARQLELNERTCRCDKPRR

T2: Human TIGIT (human, UniProt Q495A1 22-141)
T2 construct: also called TIGIT antigen; not shown: His tag
T2 sequence: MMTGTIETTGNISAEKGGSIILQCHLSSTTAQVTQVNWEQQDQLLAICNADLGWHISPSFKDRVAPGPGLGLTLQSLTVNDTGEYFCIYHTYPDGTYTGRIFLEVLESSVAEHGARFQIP


How the values were obtained:
Assay in all cases: ELISA, plate coated with His-tagged antigen
Human VEGFA = biological target: T1, Human VEGFA
Description: (§1) 2) addition of antibody: according to the experimental design, operation was performed at room temperature, and the antibody was diluted in gradient with 1% BSA in PBS. […] The diluted antibody was added into wells of microtiter plate at 200 μl/well, incubated at room temperature for 2h, and then the supernatant was discarded;

Human PD-1 = biological target: T3, Human PD-1 (human, UniProt Q15116 25-170)
T3 construct: also called PD-1 antigen; not shown: His tag
T3 sequence (Q15116 25-170): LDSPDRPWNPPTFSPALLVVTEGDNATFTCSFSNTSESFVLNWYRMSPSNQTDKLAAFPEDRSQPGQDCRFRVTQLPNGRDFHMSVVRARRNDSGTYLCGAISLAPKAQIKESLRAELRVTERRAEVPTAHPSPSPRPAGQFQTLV

Human TIGIT = biological target: T2, Human TIGIT
Description: as §1

Human TGF-β1 = biological target: T4, Human TGF-β1 (human, UniProt P01137 279-390)
T4 construct: also called TGF-01; TGF-β1 antigen; not shown: His tag
T4 sequence (P01137 279-390 limits assumed): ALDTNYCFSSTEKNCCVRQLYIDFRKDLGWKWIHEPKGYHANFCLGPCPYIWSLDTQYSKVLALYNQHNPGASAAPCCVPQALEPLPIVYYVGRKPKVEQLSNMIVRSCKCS

| Binder | EC50 (Human VEGFA) | EC50 (Human PD-1) | EC50 (Human TIGIT) | EC50 (Human TGF-β1) |
| --- | --- | --- | --- | --- |
| 10A7mAb (antibody, human IgG1, kappa, V domains shown, anti-TIGIT monoclonal antibody, human IgG1 constant domains, kappa) VH: EVQLVESGGGLTQPGKSLKLSCEASGFTFSSFTMHWVRQSPGKGLEWVAFIRSGSGIVFYADAVRGRFTISRDNAKNLLFLQMNDLKSEDTAMYYCARRPLGHNTFDSWGQGTLVTVSS VL: DIVMTQSPSSLAVSPGEKVTMTCKSSQSLYYSGVKENLLAWYQQKPGQSPKLLIYYASIRFTGVPDRFTGSGSGTDYTLTITSVQAEDMGQYFCQQGINNPLTFGDGTKLEIKR |  |  | 0.0831 nM |  |
| 3G12mAb (antibody, human IgG1, kappa, V domains shown, anti-TGF-β monoclonal antibody, human IgG1 constant domains, kappa) VH: QVQLVQSGAEVKKPGSSVKVSCKASGYTFSSNVISWVRQAPGQGLEWMGGVIPIVDIANYAQRFKGRVTITADESTSTTYMELSSLRSEDTAVYYCASTLGLVLDAMDYWGQGTLVTVSS VL: ETVLTQSPGTLSLSPGERATLSCRASQSLGSSYLAWYQQKPGQAPRLLIYGASSRAPGIPDRFSGSGSGTDFTLTISRLEPEDFAVYYCQQYADSPITFGQGTRLEIKR |  |  |  | 0.0026 nM |

The next lines start with the values.

| EC50 (Human VEGFA) | EC50 (Human PD-1) | EC50 (Human TIGIT) | EC50 (Human TGF-β1) | Binder |
| --- | --- | --- | --- | --- |
| 0.063 nM | 0.45 nM |  |  | Y206-A2 (bispecific antibody, human IgG1, kappa, structure 2 IgG(H)-ScFv, A series; IgG G631 (anti-VEGF), scFv 5C4 (anti-PD-1)) light: not shown heavy: EVQLVESGGGLVQPGGSLRLSCAASGFTISDYWIHWVRQAPGKGLEWVAGITPAGGYTYYADSVKGRFTISADTSKNTAYLQMNSLRAEDTAVYYCARFVFFLPYAMDYWGQGTLVTVSSASTKGPSVFPLAPSSKSTSGGTAALGCLVKDYFPEPVTVSWNSGALTSGVHTFPAVLQSSGLYSLSSVVTVPSSSLGTQTYICNVNHKPSNTKVDKKVEPKSCDKTHTCPPCPAPPVAGPSVFLFPPKPKDTLMISRTPEVTCVVVDVSHEAPEVQFNWYVDGVEVHNAKTKPREEQFNSTFRVVSVLTVVHQDWLNGKEYKCKVSNKGLPAPIEKTISKTKGQPREPQVYTLPPSRDELTKNQVSLTCLVKGFYPSDIAVEWESNGQPENNYKTTPPVLDSDGSFFLYSKLTVDKSRWQQGNVFSCSVMHEALHNHYTQKSLSLSPGAGGGGSGGGGSGGGGSGQVQLVESGGGVVQPGRSLRLDCKASGITFSNSGMHWVRQAPGKGLEWVAVIWYDGSKRYYADSVKGRFTISRDNSKNTLFLQMNSLRAEDTAVYYCATNDDYWGQGTLVTVSSGGGGSGGGGSGGGGSEIVLTQSPATLSLSPGERATLSCRASQSVSSYLAWYQQKPGQAPRLLIYDASNRATGIPARFSGSGSGTDFTLTISSLEPEDFAVYYCQQSSNWPRTFGQGTKVEIK |
| 0.0596 nM | 0.312 nM |  |  | Y206-B2 (bispecific antibody, human IgG1, kappa, structure 2 IgG(H)-ScFv, B series; IgG G631 (anti-VEGF), scFv 5C4 (anti-PD-1)) light: not shown heavy: EVQLVESGGGLVQPGGSLRLSCAASGFTISDYWIHWVRQAPGKGLEWVAGITPAGGYTYYADSVKGRFTISADTSKNTAYLQMNSLRAEDTAVYYCARFVFFLPYAMDYWGQGTLVTVSSASTKGPSVFPLAPSSKSTSGGTAALGCLVKDYFPEPVTVSWNSGALTSGVHTFPAVLQSSGLYSLSSVVTVPSSSLGTQTYICNVNHKPSNTKVDKKVEPKSCDKTHTCPPCPAPPVAGPSVFLFPPKPKDTLMISRTPEVTCVVVDVSHEAPEVQFNWYVDGVEVHNAKTKPREEQFNSTFRVVSVLTVVHQDWLNGKEYKCKVSNKGLPAPIEKTISKTKGQPREPQVYTLPPSRDELTKNQVSLTCLVKGFYPSDIAVEWESNGQPENNYKTTPPVLDSDGSFFLYSKLTVDKSRWQQGNVFSCSVMHEALHNHYTQKSLSLSPGAGGGGSGGGGSGGGGSGEIVLTQSPATLSLSPGERATLSCRASQSVSSYLAWYQQKPGQAPRLLIYDASNRATGIPARFSGSGSGTDFTLTISSLEPEDFAVYYCQQSSNWPRTFGQGTKVEIKGGGGSGGGGSGGGGSQVQLVESGGGVVQPGRSLRLDCKASGITFSNSGMHWVRQAPGKGLEWVAVIWYDGSKRYYADSVKGRFTISRDNSKNTLFLQMNSLRAEDTAVYYCATNDDYWGQGTLVTVSS |
